Sequences and labels used below:
B1: Insulin receptor substrate 1 (Homo sapiens), P35568 (parent)
chain: MASPPESDGFSDVRKVGYLRKPKSMHKRFFVLRAASEAGGPARLEYYENEKKWRHKSSAPKRSIPLESCFNINKRADSKNKHLVALYTRDEHFAIAADSEAEQDSWYQALLQLHNRAKGHHDGAAALGAGGGGGSCSGSSGLGEAGEDLSYGDVPPGPAFKEVWQVILKPKGLGQTKNLIGIYRLCLTSKTISFVKLNSEAAAVVLQLMNIRRCGHSENFFFIEVGRSAVTGPGEFWMQVDDSVVAQNMHETILEAMRAMSDEFRPRSKSQSSSNCSNPISVPLRRHHLNNPPPSQVGLTRRSRTESITATSPASMVGGKPGSFRVRASSDGEGTMSRPASVDGSPVSPSTNRTHAHRHRGSARLHPPLNHSRSIPMPASRCSPSATSPVSLSSSSTSGHGSTSDCLFPRRSSASVSGSPSDGGFISSDEYGSSPCDFRSSFRSVTPDSLGHTPPARGEEELSNYICMGGKGPSTLTAPNGHYILSRGGNGHRCTPGTGLGTSPALAGDEAASAADLDNRFRKRTHSAGTSPTITHQKTPSQSSVASIEEYTEMMPAYPPGGGSGGRLPGHRHSAFVPTRSYPEEGLEMHPLERRGGHHRPDSSTLHTDDGYMPMSPGVAPVPSGRKGSGDYMPMSPKSVSAPQQIINPIRRHPQRVDPNGYMMMSPSGGCSPDIGGGPSSSSSSSNAVPSGTSYGKLWTNGVGGHHSHVLPHPKPPVESSGGKLLPCTGDYMNMSPVGDSNTSSPSDCYYGPEDPQHKPVLSYYSLPRSFKHTQRPGEPEEGARHQHLRLSTSSGRLLYAATADDSSSSTSSDSLGGGYCGARLEPSLPHPHHQVLQPHLPRKVDTAAQTNSRLARPTRLSLGDPKASTLPRAREQQQQQQPLLHPPEPKSPGEYVNIEFGSDQSGYLSGPVAFHSSPSVRCPSQLQPAPREEETGTEEYMKMDLGPGRRAAWQESTGVEMGRLGPAPPGAASICRPTRAVPSSRGDYMTMQMSCPRQSYVDTSPAAPVSYADMRTGIAAEEVSLPRATMAAASSSSAASASPTGPQGAAELAAHSSLLGGPQGPGGMSAFTRVNLSPNRNQSAKVIRADPQGCRRRHSSETFSSTPSATRVGNTVPFGAGAAVGGGGGSSSSSEDVKRHSSASFENVWLRPGELGGAPKEPAKLCGAAGGLENGLNYIDLDLVKDFKQCPQECTPEPQPPPPPPPHQPLGSGESSSTRRSSEDLSAYASISFQKQPEDRQ

The source of these data is IntAct's records for PubMed 8599766.

The variants in this assay derive from B1. The note with it: with il4ra_human IL4R.
R227Q: the “effect of a mutation on the interaction” value is reported as “decreasing interaction”. Next, M257A: “decreasing interaction”. In the case of R212Q;R227Q, the “effect of a mutation on the interaction” value is on record as “disrupting interaction”. In the case of R212Q, the “effect of a mutation on the interaction” value is “decreasing interaction”.
